Laboratory results reported in the supplement of paper PMC7125110.
± gives the standard error. This sample holds only a part of the variants without activity.

B1: glmS ribozyme (parent)
chain: AUAAAAGCGCCAGAACUACAGAAAUGUAGUUGACGAGGAGGAGGUUUAUCGAAUUUUCGGCGGAUGCCUCCAAA

Variants of: B1
Test: self-cleavage kobs at 2500 uM GlcN6P; higher = faster cleavage; RNA array
Conditions: with glucosamine-6-phosphate
Outline: (§1)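 Tracking of barcoded ribozyme variants used a hybridised Cy3 probe at 37 °C, after in situ transcription by E. coli RNA polymerase on sequenced MiSeq chips. The flowed solution held 40 μM to 10 mM glucosamine-6-phosphate in HEPES/KCl/Mg(OAc)2 buffer, and imaging ran over ~14 h. kobs was taken from exponential decay fits of normalised per-tile medians, and kcat and KM from weighted Michaelis–Menten fits.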

Variant	self-cleavage kobs at 2500 uM GlcN6P [s⁻¹]
CUAAAAGCGCCAGAACUACAGAAAUGUAGUUGACGAGGAGGAGGUUUAUCGAAUUUCCGGCGGAUGCCUCCAAA	9.88e-05 ± 2.4e-05
AUAAAAGCGCCAGAGCUACAGAAAUGUAGUUGACGAGGAGGAGGUUUAUCGAAUUUACGGCGGAUGCAUCCAAA	5.07e-05 ± 1.9e-05
AUAAAAGUGCCAGAACUACAGAAAUGUAGUUGACGAUGAGGAGGUUUAUCGAAGUUUCGGCGGAUGCCUCCAAA	< 1e-05
AUAAAAGAGCCAGGACUACAGAAAUGUAGUUGACGAGGAGGAGGUUUAUCGAAUUUUCGGCGGAUGCUUGCAAA	< 1e-05
AUAAAAUCGCCAGAACUACAGAAAUGUAGUUGACGAGGAGGAGGUUUAUCGUAUCUUCGGCGGAUGCCUCCAAA	< 1e-05
AUAAAAGCGCCAGAACUACAGAAAUGUAGUUGACGACGAGGAGGUUUAUCGGAUUGUCGGCGGAUGCCUCCAAA	< 1e-05
AUAAAAGCGCGAGAACUACAGAAAUGUAGUUGACGAGGAGGAGGUUUAUCCAAUUUUCGGCGGCUGCCUCCAAA	< 1e-05
AUAAAAGCGCCAGAACUACAGAAAUGUAAUUGACGAGGAGGAGGUUUAUGGAAUAUUCGGCGGAUGCCUCCAAA	0.000211 ± 8.8e-05
AUAAAAGCGCCGGAACUACAGAAAUGUAGUUGAAGAGGAGGAGGAUUAUCGAAUUUUCGGCGGAUGCCUCCAAA	< 1e-05
AUAAAAGCGCCAGAACUACAGAAAUGUAGCUGAGGAGGAGGAGCUUUAUCGAAUUUGCGGCGGAUGCCUUCAAA	< 1e-05
AUAAAAGCGCCAGAACUACAGAAAUGUAGUUGACGAGGAGGUGGUUGAUCGAAUUUUCGGCGGAUGCCACCAAA	0.0115 ± 0.0021
AUAAACGCGCCAGAACUACAGAAAUGUAGUUGUCGACGAGGUGGUUUCUCGAAUUAUCUGCGGAUGCGUCCAAA	< 1e-05
AUAAAAGCGCGAGAACUACAGAAAUGUAUUUGACGAGGAGGAGGUUUUUCUAAUUUUCGGCGGAUGCCUCGAAA	0.000485 ± 0.00016
AUAAAAGCGCCAGAACUACAGAAAUGUAGUUGACGAGGAGGCGGCUUUUCGAAUUUUCGGAGGAUGCCUCCAAA	< 1e-05
AUAAAGGCGCCAUAACUACAGAAAUGUAGUUGACGAGGAAGAGGUUUAUCGAAUUUUCGGCGGAUGCCUCUAAA	< 1e-05
AUAAAAUCGCCGGAACUACAGAAAUGUAGUUGACGAGGAGGAGGUUUAUCGAAUUUUCGGCGGAUGCCACCAAA	< 1e-05
AUAAAAGCGCCAGAACUACAGAAAUGUAGUUGACGAGCAGGAGGUUUUUCGAAUUUCCGGCGGAUGUCUCCAAA	< 1e-05
AUAAACCCGCCAGAACUACAGAAAUGUAGUUGACGAGGAGGAGGUUUAUCGAAUUUUCGGCGAAUGCCUCCAAA	< 1e-05
AUAAAAGCGCCAGAACUACAGAAAUGUAGUUGACGAGGUGUAGGUAUAUCGAAUUUUCGGCGGAUGCCUCCAAA	4.67e-05 ± 1.4e-05
AUAAAAGCGCCAGAACUACAGAAAUGUAGCUGACGAGGAGGAGGUUUAUCGAAUUUUCGGCGGAGGGCUCCAAA	0.000128 ± 3.3e-05
AUAAAAGCGCCAGAGCUACAGAAAUGUAGUUAACGAGGAGGAGGUUUAUCGAAUUUUCGGCGGAUGCCUCGAAA	0.000277 ± 0.0001
AUAAAAGCGCCAGAACUACAGAAAUGUAGUUGACGAUGAAGAGGUUUAUCGAAUUUUCGGCGAAUGCCUCCAAA	< 1e-05
AUAAAAUCGCCAGAACUACAGAAAUGUAGUCGACGUGGCGGGGGUUUAUCGAAUUUUCUGCGGAUUCCUCCAAA	< 1e-05
AUAAAAGCGCCAGAACUACAGAAAUGUAGUUGACGAGGAGGAUGUUUAUCGAAUUUUCGGCGGAUGCAUUAAAA	9.92e-05 ± 2.8e-05
AUAAAAGCGCCAGAACUACAGAAAUGUAGUCGACGAGAAAGAGGUUUAUCGAAUUUUCGGCGGAUGCCUCCAAA	< 1e-05
AUAAAAGCGCCAGAACUACCGAAAUGUAGUUGACGAGGAGGAGGUUUGUCGAAUUUUCGGCGGAUGCCUCCAAA	0.000134 ± 2.6e-05
AUAAAAGCGCCAUAACUACAGAAAUGUAGGUCACGAGGAGGAGGUUUAUCGAAUUUUCGGCGGAUGCCUCCAAA	4.58e-05 ± 1.5e-05
AUAAAAGCGCCAGUACUACAGAAAUGUAGUUGACGAGGAGGAGGCUUAUCGAAUUUUCGCCGCAUGCCUCCAAA	< 1e-05
AUAAAAGCGCCAGAUCUACAGAAAUGUAGUUGACUAGGAGGAGGUUUAUCGAAUUUUCGGCGGAUGGCUCCAAA	< 1e-05
AUAAAAGCGCCAGGACUACAGAAAUGUAGAUGACGAGGAGCAGGUUUAUCGAAUUUUCGGCGGAUGCCUCCAAA	0.000337 ± 0.00013

Variants of: B1
Test: self-cleavage kobs at 10000 uM GlcN6P; higher = faster cleavage; RNA array
Conditions: with glucosamine-6-phosphate
Outline: as §1

Variant	self-cleavage kobs at 10000 uM GlcN6P [s⁻¹]
AUAAAAUCGCCAGAACUACAGAAAUGUAGUUGACGAGGAGGAGGUUUAUCGUAUCUUCGGCGGAUGCCUCCAAA	< 1e-05
AUAAAAGCGCCGGAACUACAGAAAUGUAGUUGAAGAGGAGGAGGAUUAUCGAAUUUUCGGCGGAUGCCUCCAAA	< 1e-05
AUAAAAGCGCCAGAACUACAGAAAUGUAGUUGACGAGGUGUAGGUAUAUCGAAUUUUCGGCGGAUGCCUCCAAA	0.000135 ± 2.6e-05
AUAAAAGCGCCAGAACUACAGAAAUGUAGCUGACGAGGAGGAGGUUUAUCGAAUUUUCGGCGGAGGGCUCCAAA	2.81e-05 ± 1.3e-05
AUAAAAGCGCCAGAGCUACAGAAAUGUAGUUAACGAGGAGGAGGUUUAUCGAAUUUUCGGCGGAUGCCUCGAAA	0.000201 ± 3.3e-05
AUAAAAGCGCCAGAACUACAGAAAUGUAGUUGACGAUGAAGAGGUUUAUCGAAUUUUCGGCGAAUGCCUCCAAA	< 1e-05
